Measurements as given in patent US20080020978A1 (Amgen, published 2008).
Like-named read-outs stand apart in the source and are kept apart here. Square brackets hold non-standard residues; d marks the D form. Ends that are not written are not given here.

Experiments:
[1] = target: T1, CGRP1 receptor (CRLR/RAMP1 complex) of human neuroblastoma SK-N-MC cells (human, UniProt Q16602 23-461; O60894 27-148); assay: cell-based or functional assay
[2] = target: T1, CGRP1 receptor (CRLR/RAMP1 complex) of …; assay: cell-based or functional assay; remark: listed apart in the source
[3] = target: T1, CGRP1 receptor (CRLR/RAMP1 complex) of …; assay: cell-based or functional assay; remark: listed apart in the source
[4] = target: T1, CGRP1 receptor (CRLR/RAMP1 complex) of …; assay: cell-based or functional assay; remark: listed apart in the source
[5] = target: T1, CGRP1 receptor (CRLR/RAMP1 complex) of …; assay: 125I-hαCGRP competition, SK-N-MC membranes
Description: CGRP₁ binding experiments. […] The plates were incubated at room temperature for 2 hour with shaking at 60 rpm, then the contents of each well were filtered over 0.5% polyethyleneimine (PEI)-treated (at least one hour) GF/C 96-well filter plates. The GF/C filter plates were washed 6 times with ice-cold 50 mM Tris, pH 7.5 and dried in an oven at 55 C for 1 hour. The bottoms of the GF/C plates were then sealed, and 40 μl Microscint™ 20 was added to each well, then the tops of the GF/C plates were sealed with TopSeal™-A, a press-on adhesive sealing film, and the GF/C plates were counted with TopCount NXT (Packard). The data were analyzed by using ActivityBase (IDBS) or Prizm (GraphPad) software.

T1 sequence (Q16602 23-461, chain 1 of 2): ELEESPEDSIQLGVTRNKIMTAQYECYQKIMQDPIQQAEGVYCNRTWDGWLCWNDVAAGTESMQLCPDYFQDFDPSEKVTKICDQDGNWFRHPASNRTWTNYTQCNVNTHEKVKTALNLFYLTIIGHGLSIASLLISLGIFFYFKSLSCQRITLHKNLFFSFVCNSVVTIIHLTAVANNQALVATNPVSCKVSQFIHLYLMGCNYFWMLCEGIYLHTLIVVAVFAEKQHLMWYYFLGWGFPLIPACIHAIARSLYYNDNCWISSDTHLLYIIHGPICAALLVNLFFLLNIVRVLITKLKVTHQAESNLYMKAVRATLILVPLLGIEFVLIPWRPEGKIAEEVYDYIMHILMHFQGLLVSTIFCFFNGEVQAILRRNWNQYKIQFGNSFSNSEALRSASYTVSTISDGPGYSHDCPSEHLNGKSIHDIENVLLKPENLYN
T1 sequence (O60894 27-148, chain 2 of 2): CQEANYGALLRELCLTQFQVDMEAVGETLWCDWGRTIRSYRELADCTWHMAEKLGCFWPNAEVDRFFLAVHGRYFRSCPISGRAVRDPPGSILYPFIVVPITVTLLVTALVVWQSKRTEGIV

B1: SEQ ID NO 38 (peptide)
peptide: Ac-WVTHRLAGLLSQSGGVVRKNFVPTDVGPFAF-NH2
modifications: not fully specified (residue 19); printed as Ac-WVTHRLAGLLSQSGGVVRKNFVPTDVGPFAF-NH2
- fold change in potency against SEQ ID NO:36 [1]: > 42 fold
- IC50 [2]: 0.11 nM

B2: SEQ ID NO 7 (peptide)
peptide: Ac-WVTHRLAGLLSRSGGVVRKNFVPTDVGPFAF-NH2
- IC50 [3]: 0.13 nM
- IC50 [4]: 0.13 nM

B3: SEQ ID NO 11 (peptide)
peptide: Ac-WVTHRLAGLLSRSGGVKRNNFVPTDVGPFAF-NH2
- IC50 [3]: 0.51 nM
- IC50 [4]: 0.51 nM

B4: SEQ ID NO 8 (peptide)
peptide: Ac-WVTHRLAGLLSRSGGVVRCNFVPTDVGPFAF-NH2
- fold change in potency against SEQ ID NO:9 [1]: > 4 fold
- IC50 [3]: 0.5 nM
- IC50 [4]: 0.5 nM

B5: SEQ ID NO 40 (peptide)
peptide: Ac-WVTHQLAGLLSQSGGVVRKNFVPTDVGPFAF-NH2
modifications: not fully specified (residue 19); printed as Ac-WVTHQLAGLLSQSGGVVRKNFVPTDVGPFAF-NH2
- IC50 [2]: 1.33 nM

B6: SEQ ID NO 13 (peptide)
peptide: Ac-WVTHRLAGLLSRSGGVVKNNFVPTDVGPFAF-NH2
modifications: not fully specified (residue 18); printed as Ac-WVTHRLAGLLSRSGGVVKNNFVPTDVGPFAF-NH2
- fold loss of antagonist activity against SEQ ID NO:5 [1]: > 15 fold
- IC50 [4]: 2.15 nM

B7: SEQ ID NO 25 (peptide)
peptide: WVTHXLAGLLSXSGGVVRKNFVPTDVGPFAF
modifications: Ac-WVTH(hR)LAGLLS(hR)SGGVVRKNFVPTDVGPFAF-NH2
- fold loss of antagonist activity against SEQ ID NO:21 and 23 [1]: ~5 fold
- IC50 [2]: 2.1 nM

B8: SEQ ID NO 31 (peptide)
peptide: WVTHXLAGLLSXSGGVVRKNFVPTDVGPFAF
modifications: Ac-WVTH(Cit)LAGLLS(Cit)SGGVVRKNFVPTDVGPFAF-NH2
- fold loss of potency against SEQ ID NO:27 and 29 [1]: ~3 fold
- IC50 [2]: 1.8 nM
- Ki [5]: 0.46 nM

B9: SEQ ID NO 15 (peptide)
peptide: Ac-WVTHRLAGLLSRSGGVVRKNFVPTDVGPFAF-NH2
modifications: not fully specified (residue 19); printed as Ac-WVTHRLAGLLSRSGGVVRKNFVPTDVGPFAF-NH2
- fold change in potency against SEQ ID NO:1 [1]: ~12 fold
- fold loss of antagonist activity against SEQ ID NO:7 [1]: ~3 fold
- IC50 [4]: 0.42 nM

B10: SEQ ID NO 9 (peptide)
peptide: Ac-WVTHRLAGLLSRSGGVVCNNFVPTDVGPFAF-NH2
- IC50 [3]: 2.15 nM
- IC50 [4]: 2.15 nM

B11: SEQ ID NO 14 (peptide)
peptide: Ac-WVTHRLAGLLSRSGGVVCNNFVPTDVGPFAF-NH2
modifications: not fully specified (residue 18); printed as Ac-WVTHRLAGLLSRSGGVVCNNFVPTDVGPFAF-NH2
- IC50 [4]: 2.2 nM

B12: SEQ ID NO 12 (peptide)
peptide: Ac-WVTHRLAGLLSRSGGVVKNNFVPTDVGPFAF-NH2
modifications: not fully specified (residue 18); printed as Ac-WVTHRLAGLLSRSGGVVKNNFVPTDVGPFAF-NH2
- fold loss of antagonist activity against SEQ ID NO:5 [1]: > 15 fold
- IC50 [4]: 3.05 nM

B13: SEQ ID NO 45 (peptide)
peptide: CGGGGGGGPTDVGPFAF-NH2
- IC50 [3]: 56.6 nM

B14: SEQ ID NO 4 (peptide)
peptide: WVTHRLAGLLSRSGGVVKNNFVPTNVGSKAF-NH2
- fold change in potency against SEQ ID NO:1 [1]: > 7 fold
- IC50 [3]: 0.64 nM

B15: SEQ ID NO 16 (peptide)
peptide: Ac-WVTHRLAGLLSRSGGVVRKNFVPTDVGPFAF-NH2
modifications: not fully specified (residue 19); printed as Ac-WVTHRLAGLLSRSGGVVRKNFVPTDVGPFAF-NH2
- fold change in potency against SEQ ID NO:1 [1]: ~12 fold
- fold loss of antagonist activity against SEQ ID NO:7 [1]: ~3 fold
- IC50 [4]: 0.39 nM

B16: SEQ ID NO 20 (peptide)
peptide: CGGGGGGGVTHRLAGLLSRSGGVVKNNFVPTDVGPFAF-NH2
modifications: not fully specified (residue 1); printed as CGGGGGGGVTHRLAGLLSRSGGVVKNNFVPTDVGPFAF-NH2
- fold loss of potency against SEQ ID NO:3 [1]: > 190 fold
- IC50 [4]: 138 nM

B17: SEQ ID NO 41 (peptide)
peptide: Ac-WVTHRLAGLLS[dR]SGGVVRCNFVPTDVGPFAF-NH2
SMILES: CC(=O)N[C@@H](Cc1c[nH]c2ccccc12)C(=O)N[C@H](C(=O)N[C@H](C(=O)N[C@@H](Cc1c[nH]cn1)C(=O)N[C@@H](CCCNC(=N)N)C(=O)N[C@@H](CC(C)C)C(=O)N[C@@H](C)C(=O)NCC(=O)N[C@@H](CC(C)C)C(=O)N[C@@H](CC(C)C)C(=O)N[C@@H](CO)C(=O)N[C@H](CCCNC(=N)N)C(=O)N[C@@H](CO)C(=O)NCC(=O)NCC(=O)N[C@H](C(=O)N[C@H](C(=O)N[C@@H](CCCNC(=N)N)C(=O)N[C@@H](CS)C(=O)N[C@@H](CC(N)=O)C(=O)N[C@@H](Cc1ccccc1)C(=O)N[C@H](C(=O)N1CCC[C@H]1C(=O)N[C@H](C(=O)N[C@@H](CC(=O)O)C(=O)N[C@H](C(=O)NCC(=O)N1CCC[C@H]1C(=O)N[C@@H](Cc1ccccc1)C(=O)N[C@@H](C)C(=O)N[C@@H](Cc1ccccc1)C(N)=O)C(C)C)[C@@H](C)O)C(C)C)C(C)C)C(C)C)[C@@H](C)O)C(C)C
- IC50 [2]: 0.59 nM

B18: SEQ ID NO 42 (peptide)
peptide: Ac-WVTHRLAGLLS[dR]SGGVVRCNFVPTDVGPFAF-NH2
modifications: not fully specified (residue 19); printed as Ac-WVTHRLAGLLSrSGGVVRCNFVPTDVGPFAF-NH2
- fold loss of antagonist activity against SEQ ID NO:41 [1]: > 32 fold
- IC50 [2]: 19.4 nM

B19: SEQ ID NO 18 (peptide)
peptide: Ac-WVTHRLAGLLSRSGGVCRNNFVPTDVGPFAF-NH2
modifications: not fully specified (residue 17); printed as Ac-WVTHRLAGLLSRSGGVCRNNFVPTDVGPFAF-NH2
- fold change in potency against SEQ ID NO:1 [1]: ~31 fold
- IC50 [4]: 0.16 nM

B20: SEQ ID NO 17 (peptide)
peptide: Ac-WVTHRLAGLLSRSGGVVRCNFVPTDVGPFAF-NH2
modifications: not fully specified (residue 19); printed as Ac-WVTHRLAGLLSRSGGVVRCNFVPTDVGPFAF-NH2
- IC50 [4]: 1.9 nM

B21: SEQ ID NO 3 (peptide)
peptide: CGGGGGGGVTHRLAGLLSRSGGVVKNNFVPTDVGPFAF-NH2
- fold change in potency against SEQ ID NO:1 [1]: > 6 fold
- IC50 [3]: 0.72 nM
- IC50 [4]: 0.72 nM

B22: SEQ ID NO 19 (peptide)
peptide: Ac-WVTHRLAGLLSRSGGVKRNNFVPTDVGPFAF-NH2
modifications: not fully specified (residue 17); printed as Ac-WVTHRLAGLLSRSGGVKRNNFVPTDVGPFAF-NH2
- IC50 [4]: 0.98 nM

B23: SEQ ID NO 6 (peptide)
peptide: Ac-VTHRLAGLLSRSGGVVRKNFVPTDVGPFAF-NH2
- IC50 [3]: 0.7 nM
- Ki [5]: 0.04 nM

B24: SEQ ID NO 2 (peptide)
peptide: CGGGGGGGVTHRLAGLLSRSGGVVKNNFVPTNVGSKAF-NH2
- IC50 [3]: 21.1 nM

B25: SEQ ID NO 36 (peptide)
peptide: Ac-WVTHRLAGLLSQSGGVVRCNFVPTDVGPFAF-NH2
modifications: not fully specified (residue 19); printed as Ac-WVTHRLAGLLSQSGGVVRCNFVPTDVGPFAF-NH2
- fold loss of antagonist activity against SEQ ID NO:35 [1]: > 12 fold
- IC50 [2]: 4.69 nM

B26: SEQ ID NO 10 (peptide)
peptide: Ac-WVTHRLAGLLSRSGGVCRNNFVPTDVGPFAF-NH2
- IC50 [3]: 0.36 nM
- IC50 [4]: 0.36 nM

B27: SEQ ID NO 96 (peptide)
peptide: WFVPTDVGPFAF-NH2
- IC50 [3]: 21.7 nM

B28: SEQ ID NO 37 (peptide)
peptide: Ac-WVTHRLAGLLSQSGGVVRKNFVPTDVGPFAF-NH2
- IC50 [2]: 0.56 nM

B29: SEQ ID NO 39 (peptide)
peptide: Ac-WVTHQLAGLLSQSGGVVRKNFVPTDVGPFAF-NH2
- IC50 [2]: 0.53 nM
